Assay results: patent US20240324599A1, “PESTICIDAL ENZYMES FOR USE ON NEMATODES, INSECTS, AND MOLLUSKS” (priority 2023, published 2024)

Key:
Assay type in all cases: in vivo
[1] = system: Btk resistant Diamondback moth; test: Diet-surface overlay (DSO) bioassay
Procedure: (§1) Diet-surface overlay bioassays are conducted with artificial diet mixes without antibiotics in 1.5 cm^2 cell bioassay trays(s). Artificial diets are commercially available from Southland Products Inc. Diets were prepared by dispersing 0.5 mL of molten diet to each 1.5 cm^2 cell. After solidification, 0.1 mL enzyme treatments were dispersed on top of diet in each cell and the tray was gently rocked in an orbital shaker to spread the liquid uniformly over the diet surface. Trays were placed under clean airflow until the surface of each cell was uniformly dried. One or two 16-cell sections were used per treatment (the number in larvae treated was 16 or 32).
(§2) One healthy first instar larva was placed into each treatment cell, each 16-cell section was covered with a re-sealable lid and incubated at 27° C. and light-dark period of 16:8 hrs. After 7 days, and according to the species, the number of individuals in the following developmental categories was recorded.
(§3) Diamondback moth (Plutella xylostella): Dead Larva (lack of movement), Larva Stage I (≤50% relative size), Larva Stage II (100% relative size, full size), Early Pupa (light green color), Late Pupa (light-dark brown color), and Adult.
(§4) Negative/untreated controls were treated with filtered water and positive controls were treated with lethal doses of Bacillus thuringiensis subsp. Kurstaki (Btk) spores at 1000 ppm.
However, both neutral proteases reduced the number of individuals reaching adult stage.

[2] = system: Diamondback moth (Plutella xylostella); test: Diet-surface overlay (DSO) bioassay; conditions: Table 41, individuals of n = 16 after 7 days
Procedure: as §1, §2, §3, §4

[3] = system: Fall armyworm (Spodoptera frugiperda); test: Diet-surface overlay (DSO) bioassay
Procedure: as §1, §2, §4

[4] = system: Black gloss snails (Zonitoides nitidus); test: Antifeedant and molluscicide bioassay (artificial diet): consumption, survival, weight gain; conditions: Table 63; n = 12, 7 days; control diet 2.50
Procedure: Two-week old garden snails (Cornu aspersum) and full-size black gloss snails (Zonitoides nitidus) were maintained in a semi-darkened tank at 68-70° F. at high humidity, provided with a wet sponge in a petri dish. Snails were transferred to fresh tank every 2-3 days, and they were feed ad libitum with cucumber slices supplemented with calcium carbonate tablets. Individuals were reared in the laboratory for at least a week to fully acclimate to laboratory conditions prior to testing. The individuals ranged between 3 weeks to 2 months old at the time of bioassay.
Filter-sterilized recombinant enzymes including proteases and lipases were prepared as indicated in Example 25. Corresponding controls (e.g., buffer, fermentation of non-recombinant strain, water) were be prepared accordingly. […]
12 snails were randomly assigned to each treatment, labeled with permanent marker on the top of the shell for identification, and their weight (mg) was recorded before treatment. […] At the time of treatment replacement, treatment consumption, weight, and mortality were recorded.
Alkaline Protease and Keratinase and Lipases from Pseudomonas fluorescens (Pf,), were prepared as described above and their antifeedant and molluscicidal effects were tested. […] The units (U) of enzyme activity was determined as the amount of enzyme required to breakdown 1 μM of substrate per minute. […]

[5] = Table 42, Btk resistant, n = 32, doses as E69, water 0
[6] = Table 43, n = 32, Keratinase 260 U/mL diet, water 0

B1: Keratinase: protease resuspended in water at 0.25 g/mL (protein, listed as Bacillus licheniformis)
chain: MMRKKSFWLGMLTAFMLVFTMAFSDSASAAQPAKNVEKDYIVGFKSGVKTASVKKDIIKESGGKVDKQFRIINAAKAKLDKEALKEVKNDPDVAYVEEDHVAHALAQTVPYGIPLIKADKVQAQGFKGANVKVAVLDTGIQASHPDLNVVGGASFVAGEAYNTDGNGHGTHVAGTVAALDNTTGVLGVAPSVSLYAVKVLNSSGSGSYSGIVSGIEWATTNGMDVINMSLGGASGSTAMKQAVDNAYARGVVVVAAAGNSGSSGNTNTIGYPAKYDSVIAVGAVDSNSNRASFSSVGAELEVMAPGAGVYSTYPTNTYATLNGTSMVSPHVAGAAALILSKHPNLSASQVRNRLSSTATYLGSSFYYGKGLINVEAAAQ
modifications: Protease _ keratinase
notes: protease resuspended in water at 0.25 g/mL
Dead Larva ([1]; Table 42, Btk resistant strain, individuals of n = 32 after 7 days, U/mL diet: SEQ 127 2, Neutral 200, Keratinase 260, water 1): 19
Larva Stage I [1, 5]: 11
Larva Stage II [1, 5]: 2
Early Pupa ([1]; Table 42, Btk resistant, n = 32, doses as E69, water 1): 0
Adult ([1]; Table 42, Btk resistant, n = 32, doses as E69, water 8): 0
Late Pupa ([1]; Table 42, Btk resistant, n = 32, doses as E69, water 22): 0
mortality ([1]; text to Table 42, 10× higher protease activity rate): more than 50%
effect on Btk resistant Diamondback moth larvae, in words ([1]; text to Tables 42, 45, 47): strong stunting of survival larvae
Dead Larva ([2]; U/mL diet: SEQ 127 0.206, Acid 2.5, Alkaline 190, Neutral 20, Keratinase 26, Btk spores 1000 ppm, water 0): 1
Larva Stage I ([2]; doses as E63, water 0): 0
Larva Stage II ([2]; doses as E63, water 0): 0
Early Pupa ([2]; doses as E63, water 3): 11
Late Pupa ([2]; doses as E63, water 3): 4
Adult ([2]; doses as E63, water 10): 0
Dead Larva ([3]; Table 43, individuals of n = 32 after 7 days, Keratinase 260 U/mL diet, water 2): 32
Larva Stage I [3, 6]: 0
Larva Stage II [3, 6]: 0
Larva Stage III [3, 6]: 0
Larva Stage IV ([3]; Table 43, n = 32, Keratinase 260 U/mL diet, water 30): 0
effect on Fall armyworm larvae, in words ([3]; text to Tables 43, 46, 48, 50): lethal
Diet consumption [4]: 0.70 g
